Assay results published in the DeepSol protein solubility set.

Assay: soluble on expression in E. coli; label from the status in PepcDB or PDB records

Sequence	soluble on expression in E. coli
MVPLESSTLFGVYGGFTDSMMMRETTTNNQDPSGDTCSVSDPAPGSTDYYNISSSPVKDDGTAPKNDVVCSINVDDNKDKSWLRLGIGPEENTDGSYKLQRCCSKNGSGRENSLELSLFSSSSTAVSSSIDHLPTQPLQLPYHHDQLLTMRGPSLVYNHQLMKPQTLLNRGFSFPSSKPWIPQYMAPFRPSSLSDRDVTNNNSLSRSCCVDEGGAGPSSEFRVLDPPRRPHSGLWFLLQASQFQ	soluble
MVPLTEENVESVLDEIRPYLMSDGGNVALHEIDGNVVRVKLQGACGSCPSSTMTMKMGIERRLMEKIPEIVAVEALPDEETGLELNEENIEKVLEEIRPYLIGTADGSLDLVEIEDPIVKIRITGPAAGVMTVRVAVTQKLREKIPSIAAVQLI	soluble
MVPPITSDEFCETSGCFGDSANLHTTLERLKININSDAKKLVDTNGDLKKHQRFLRIAKVTSLRSKDPNTQVGCVIVDKDNCIVSVGYNGFPIGVDDDVFRWDKEDPEDNKHLYVVHAEMNAIINKRCTTLHDCTVYVTLFPCNKCAQMLIQSRVKKVYFLENRDELAFRASKKMLDHARLPYEQIVMPQEAYVIEL	not soluble
MVQAEGLTKRYRKAVAVEGLTFGVGPGEVYALLGPNGAGKTTTLRLLSTLVRPSAGRALVAGFDVVREPLEVRRNLGLVNGGMRVYERLTGREVLEFFAGFYGLKGRAFLGALDWVVDLLEMEETLDKKVGEMSTGMRQKVVIARAILHRPKVLLLDEATAGLDIFARRALLDFVKAYRDLGHAVIYSTHVMGEAEEVADRVGFLHRGRLVYEGSKEEALALGEGSLERAFVRQVRGA	soluble
MVQALPSNIGIQQVTLKVADLDKMVNFYTKTIGLKLLKQGEGRAWLAPQGTNDAILVLKELTAGEENQGTTGLYHIAFLLPTRKDLGNMLLWLLQENVQIGAADHGYSEALYLSDPENNGIEIYWDKPEEVWDIRPNGEIIGVTEELDGDSLAAEADGHWLGISEGSKIGHIHLKVADLDATETFYKNLGFGLKSNFGQQAKFFAAGQYHHHIGTNTWSGKQLPTIQENQFGLENYTFRLPTAADLEIVQANAEEAKLHFIAKDHLLALEDPSGMIIQFTY	not soluble
MVQEANVRDKMRGTGVSVTRSGDNIILNMPNNVTFDSSSATLKPAGANTLTGVAMVLKEYPKTAVNVIGYTDSTGGHDLNMRLSQQRADSVASALITQGVDASRIRTQGLGPANPIASNSTAEGKAQNRRVEITLSPLLEHHHHHH	not soluble
MVQIIFDSKTGNVQRFVNKTGFQQIRKVDEMDHVDTPFVLVTYTTNFGQVPASTQSFLEKYAHLLLGVAASGNKVWGDNFAKSADTISRQYQVPILHKFELSGTSKDVELFTQEVERVVTKSSAKMDPVK	soluble
MVQRVTIAPQGPEFSRFVMGYWRLMDWNMSARQLVSFIEEHLDLGVTTVDHADIYGGYQCEAAFGEALTLAPHLREKLQIVTKCGIATTARAENKLGHYITDRRHIILSAEQSLKNLATDYLDMLLIHRPDPLMDADDVAEAFQHLHQSGKVRHFGVSNFTPAQFTLLQSRLPFTLATNQVEISPVHQPLLLDGTLDQLQQLRIRPMAWSCLGGGRLFNDEAYQPLRQELSVIAQELNASSIEQVVYAWILRLPSQPLPIIGSGKIERVRAALEAETLSLTRQQWFRIRKAALGYDVP	not soluble
MVRRLTSPRLEFEAAAIYEYPEHLHSFLNDLPTRPGVYLFHGESDTMPLYIGKSVNIRSRVLSHLRTPDEAAMLRQSRRISWICTAGEIGALLLEARLIKEQQPLFNKRLRRNRQLCALQLNEKRVDVVYAKEVDFSRAPNLFGLFANRRAALQALQSIADEQKLCYGLLGLEPLSRGRACFRSALKRCAGACCGKESHEEHALRLRQSLERLRVVCWPWQGAVALKEQHPEMTQYHIIQNWLWLGAVNSLEEATTLIRTPAGFDHDGYKILCKPLLSGNYEITELDPANDQRAS	not soluble
MVRVIIKGGVWKNTEDEILKAAIMKYGKNQWSRIASLLHRKSAKQCKARWFEWLDPGIKKTEWSREEDEKLLHLAKLMPTQWRTIAPIVGRTSAQCLERYEHLLDEAQRKAEGLDEEATETRKLKPGEIDPTPETKPARPDPIDMDDDELEMLSEARARLANTQGKKAKRKARERQLSDARRLASLQKRREMRAAGLAFARKFKPKRNQIDYSEEIPFEKHVPAGFHNPSEDRYVVEDANQKAIEDHQKPRGREIEMEMRREDREKLKKRKEQGEADAVFNIKEKKRSKLVLPEPQISDRELEQIVKIGHASDSVRQYIDGTATSGLLTDYTESARANAVAARTMRTPMLKDTVQLELENLMALQNTESALKGGLNTPLHESELGKGVLPTPKVAATPNTVLHAIAATPGTQSQFPGSTPGGFATPAGSVAATPFRDQMRINEEIAGSALEQKASLKRALASLPTPKNDFEVVGPDDDEVEGAVEDESNQDEDGWIEDASERAENKAKRNAENRVRNMKMRSQVIQRSLPKPTKVNEQATRATNSSADDMVKAEMSKLLAWDVDNKPPSVIYSREELDAAADLIKQEAESGPELNSLMWKVVEQCTSEIILSKDKFTRIAILPREEQMKALNDEFQMYRGWMNQRAKRAAKVEKKLRVKLGGYQAIHDKLCKKYQEVTTEIEMANIEKKTFERLGEHELKAINKRVGRLQQEVTTQETREKDLQKMYSKLSNKQWKLSQIEIHDAASTTSAPITY	not soluble
MVRVRPSCQVAQSDCGLACVHMLIQSFGISASLRKMRVTYAPGRDGLSLRALTQILSDFGLNSKVVKCSYSNLSRVPLPAIIAWEPAHYVVLEKRLGDSWRIVDPSSGRRWCSKKEIEANFRSFCVTGARGNTKVSEGQVSDDPSWKSLAVLLAGK	not soluble
MVRVYIGRLPNRASDRDVEHFFRGYGKLSDVIMKNGFGFVDFQDQRDADDAVHDLNGKELCGERVILEFPRRKVGYNEERSGSGFRGREPTFRKGGERQFSNRYSRPCSTRFRLVIDNLSTRYSWQDIKDHIRKLGIEPTYSEAHKRNVNQAIVCFTSHDDLRDAMNKLQGEDLNGRKLKCTDETRDRSRSRSPRRRSRSRSPTRSRSPPARRRSPGSDRSDRKSRSASPKKRSDKRARSESKSRSRSGGRRSRSNSPPNRSPSPKKRRDNSSPRSGSASP	not soluble
MVSEMLSEAGHSVSYLKGGMKAWSEHLEPVKVGDLKDGGEMYQFVRIGKGCLSYMVISNGEAAIIDATRMVNFFIDFAKGKGATITHVFDTHLHADHISGGRVIAEKTKATYWLPPKDAEEVEFDYQPLEEGNDIIIGNTTIKIQPIYSPGHTIGSTSFIVDDQYLLSGDILFIDSIGRPDLAGMAEDWVGDLRKTLYSRYKALSKDLIVLPAHFMIIDELNENGSVGKQLSTLFSENHGLNIADETEFRHLVTDHLPPQPNAYQEIRETNMGKISPDEEKQREMEIGPNRCAIRLEHHHHHH	not soluble
MVSRLSTGILDFDKLIQGGIPQGFFIALTGEPGTGKTIFSLHFIAKGLRDGDPCIYVTTEESRDSIIRQAKQFNWDFEEYIEKKLIIIDALMKEKEDQWSLVNLTPEELVNKVIEAKQKLGYGKARLVIDSVSALFLDKPAMARKISYYLKRVLNKWNFTIYATSQYAITTSQAFGFGVEHVADGIIRFRRMIRNGELHRYILIEKMRQTDHDKHVWEIDIVNGKGIVLKGRLEE	soluble
MVSSLLMSFAPATVRVYATSTKGGSGGPKEEKNPIDFVLGFMTKQDQFYETNPLLKKVDEKEGTTTGGRGTVRGGKNSAPTPVPKKSEGGFGGLGSLFKK	not soluble
MVSYKLTYFNGRGAGEVSRQIFAYAGQQYEDNRVTQEQWPALKETCAAPFGQLPFLEVDGKKLAQSHAIARFLAREFKLNGKTAWEEAQVNSLADQYKDYSSEARPYFYAVMGFGPGDVETLKKDIFLPAFEKFYGFLVNFLKASGSGFLVGDSLTWIDLAIAQHSADLIAKGGDFSKFPELKAHAEKIQAIPQIKKWIETRPVTPF	soluble
MVTFMITSALHRAADWAKSVFSSAALGDPRRTARLVNVAAQLAKYSGKSITISSEGSKAAQEGAYRFIRNPNVSAEAIRKAGAMQTVKLAQEFPELLAIEDTTSLSYRHQVAEELGKLGSIQDKSRGWWVHSVLLLEATTFRTVGLLHQEWWMRPDDPADADEKESGKWLAAAATSRLRMGSMMSNVIAVCDREADIHAYLQDKLAHNERFVVRSKHPRKDVESGLYLYDHLKNQPELGGYQISIPQKGVVDKRGKRKNRPARKASLSLRSGRITLKQGNITLNAVLAEEINPPKGETPLKWLLLTSEPVESLAQALRVIDIYTHRWRIEEFHKAWKTGAGAERQRMEEPDNLERMVSILSFVAVRLLQLRESFTPPQALRAQGLLKEAEHVESQSAETVLTPDECQLLGYLDKGKRKRKEKAGSLQWAYMAIARLGGFMDSKRTGIASWGALWEGWEALQSKLDGFLAAKDLMAQGIKIG	soluble
MVTINNARKILQRVDTLPLYLHAYAFHLNMRLERVLPADLLDIASENNLRGVKIHVLDGERFSLGNMDDKELSAFGDKARRLNLDIHIETSASDKASIDEAVAIALKTGASSVRFYPRYEGNLRDVLSIIANDIAYVRETYQDSGLTFTIEQHEDLKSHELVSLVKESEMESLSLLFDFANMINANEHPIDALKTMAPHITQVHIKDALIVKEPGGLGHKACISGQGDMPFKALLTHLICLGDDEPQVTAYGLEEEVDYYAPAFRFEDEDDNPWIPYRQMSETPLPENHLLDARLRKEKEDAINQINHVRNVLQQIKQEANHLLNH	soluble
MVTLCHVFGVHRSSYRYWKNRPEKPDGRRAVLRSQVLELHGISHGSAGARSIATMATRRGYQMGRWLAGRLMKELGLVSCQQPTHRYKRGGHEHVAIPNYLERQFAVTEPNQVWCGDVTYIWTGKRWAYLAVVLDLFARKPVGWAMSFSPDSRLTMKALEMAWETRGKPGGVMFHSDQGSHYTSRQFRQLLWRYQIRQSMSRRGNCWDNSPMERFFRSLKNEWMPVVGYVSFSKAAHAITDYIVGYYSALRPHEYNGGLPPNESENRYWKNSNSVASFC	not soluble
MVVFDLSWTLVQADSFELLCQAAAVDADAVAEVRRCHSLGSDDDLRACAALLRGRSSTGLAERLHALIEYTDGAASVCRVLKKLGYRTTVLSPGRSFLRELVKADLGIDFVAANRHEMDSNEHFTGAILELLVNGERKAELLTMLAMREQLSPQQIIAVGDGPVSAKMLDSAGPSIAFGAPAARDGTNIGGKIQSKSLTCIWFLMGIHERDLRSFS	soluble
MVVGVAGYYGFRNAGDEAILEAIARELKARGHEVVALSGDPKRTREDHGLRAYHRLNPLALLRADLWLLGGGGLLQDATSALSLTYYLSVLRLARLFRKRVVVFNQSLGPLSPWGERRVRKALQGVPVILRDQDSLEYARRLGIPAALGADPALLLPPPPVPREEDLVLVIPRAGVREEALTTLYVAANHLVHEGKQVLVLLLQPGYDDEVAEVFRLHRIERTSDPRRLLYLAAQAGYVISMRLHGLILAAAAGTPFAALSYDPKVAAFAKETGAYYQELPGEPIKLYKAALYGRFPDWEKVARLKERARQSFDLALGEGVPIKGSGRG	soluble
